Measurements published in paper PMC7596816 (The Journal of Experimental Medicine, 2020).

Tests used:
[1] = target: PfCSP on the surface of live Pf NF54 sporozoites (Plasmodium falciparum NF54 (endogenous in sporozoites)) (UniProt P19597); test: flow cytometry on cells; imaging flow cytometry (ImageStreamX Mk II) of live (propidium iodide-negative) Pf midgut sporozoites isolated from oocysts; mAb 1 µg/ml, 30 min 4°C, Cy5 anti-human IgG1
[2] = target: PfCSP on the surface of live Pf NF54 sporozoites (Plasmodium falciparum NF54 (endogenous in sporozoites)) (UniProt P19597); test: flow cytometry on cells; imaging flow cytometry (ImageStreamX Mk II) of live (propidium iodide-negative) Pf salivary gland sporozoites; mAb 1 µg/ml, 30 min 4°C, Cy5 anti-human IgG1
[3] = target: T1, PfCSP_(71–104) (N-CSP construct) (Plasmodium falciparum, UniProt P19597); test: ELISA; PfCSP71–104 coated at 50 ng/well; mAb at 4.00, 1.00, 0.25 and 0.06 µg/ml; goat anti-human IgG-HRP; area under the curve; settings: both partners purified
T1 construct: Plasmodium falciparum circumsporozoite protein residues 71–104, cloned into a pETM-22 vector; pETM-22 adds, as far as I recall, an N-terminal thioredoxin and His6 with a 3C protease site; source: E. coli BL21(DE3), purified (HisTrap, SEC)
T1 chain: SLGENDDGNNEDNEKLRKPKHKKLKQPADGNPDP

[4] = target: T2, PfCSP_(81–98) peptide (Plasmodium falciparum, UniProt P19597); test: crystal structure; 5D5 Fab and PfCSP81–98 peptide mixed 1:5; 20% (wt/vol) PEG 3350, 0.2 M di-ammonium citrate; 1.85 Å; settings: both partners purified
T2 construct: Plasmodium falciparum circumsporozoite protein residues 81–98; Only residues 81–92 are resolved in the crystal structure; also called N-CSP peptide; source: synthetic peptide, bought: GenScript
T2 chain: EDNEKLRKPKHKKLKQPA

[5] = target: T1, PfCSP_(71–104) (N-CSP construct); test: SEC; 5D5 Fab complexed with PfCSP71–104 at 1:1 molar ratio, with or without 100-fold molar excess of heparin sodium salt; Superdex 200 Increase 10/300 GL; peak fractions on non-reducing SDS-PAGE; settings: both partners purified

Chain of PfCSP on the surface of live Pf NF54 sporozoites (Plasmodium falciparum NF54 (endogenous in sporozoites)) (P19597 19-374): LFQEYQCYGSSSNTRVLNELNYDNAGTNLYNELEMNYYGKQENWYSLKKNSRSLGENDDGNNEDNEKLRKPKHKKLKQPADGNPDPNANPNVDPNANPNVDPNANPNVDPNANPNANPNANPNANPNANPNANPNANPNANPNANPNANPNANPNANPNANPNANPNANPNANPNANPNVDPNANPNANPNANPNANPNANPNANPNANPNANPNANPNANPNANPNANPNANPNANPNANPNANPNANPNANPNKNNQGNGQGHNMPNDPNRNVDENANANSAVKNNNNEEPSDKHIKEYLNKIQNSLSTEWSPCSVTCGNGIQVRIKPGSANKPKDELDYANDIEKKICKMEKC

B1: 5D5 IgG (5D5 variable regions on human Igγ1 and Igκ, for non-yeast display experiments) (antibody, V domains shown)
VH: QVHLQQSGGEVARPGASVKLSCKASGYTFTGYGLSWVKQRTGQGLEWIGEIYPRSGNTYYNEKFKGKATLTADKSSSTAYMELRSLTSEDSAVYFCARSWGNSSFVYWGQGTLVTVSA
VL: SIVMTQTPKFLLVSAGDRVTITCKASQSVTNDVTWYQQKPGQSPKLLIYYASNRYTGVPDRFTGSGYGTDFTFTISTVQAEDLAVYFCQQDYSSPFTFGSGTKLEIK
notes: as the heavy chain of m1 (5D5 VH + human Igγ1-CH1); two residues that replace the two stop codons of the Fab heavy chain vector; human immunoglobulin gamma-1 constant region, the part after the Fab heavy chain through the CH2 and CH3 domains; as the light chain of m1 (5D5 VL + human Igκ); Chimeric human IgG1; detected with anti-human IgG1 or anti-human IgG secondary antibodies; also called mAb …
mAb-bound sporozoites (pos1) of tot1 262, Exp 1 [1]: 67 sporozoites
mAb-bound sporozoites (pos1) of tot1 728, Exp 2 [1]: 229 sporozoites
mAb-bound sporozoites (pos1) of tot1 1,456, Exp 3 [1]: 366 sporozoites
fold decrease in MFI of mAb-bound sporozoites against mAb 1210 [2]: 2 fold
mAb-bound sporozoites (pos1) of tot1 487, Exp 2 [2]: 82 sporozoites
mAb-bound sporozoites (pos1) of tot1 545, Exp 1 [2]: 176 sporozoites
mAb-bound sporozoites (pos1) of tot1 1096, Exp 3 [2]: 316 sporozoites
proportion of mAb-bound sporozoites [2]: 27%
binding result [3]: binds

B2: 5D5 Fab expressed in HEK293F cells (complex glycan at H.Asn98) (Fab, V domains shown)
VH: QVHLQQSGGEVARPGASVKLSCKASGYTFTGYGLSWVKQRTGQGLEWIGEIYPRSGNTYYNEKFKGKATLTADKSSSTAYMELRSLTSEDSAVYFCARSWGNSSFVYWGQGTLVTVSA
VL: SIVMTQTPKFLLVSAGDRVTITCKASQSVTNDVTWYQQKPGQSPKLLIYYASNRYTGVPDRFTGSGYGTDFTFTISTVQAEDLAVYFCQQDYSSPFTFGSGTKLEIK
notes: murine mAb 5D5 VH cloned immediately upstream of human Igγ1-CH1; murine mAb 5D5 VL cloned immediately upstream of human Igκ; Chimeric Fab (mouse variable, human constant domains); The crystal structure used this glycoform; also called HEK293F–expressed 5D5 Fab; source: HEK293F, transient cotransfection, purified (KappaSelect, MonoS, SEC)
binding result [4]: binds
binding result [5]: binds
